In IntAct's records for PubMed 23169619:

B1: Protein TIFY 7 (Arabidopsis thaliana (Mouse-ear cress)), Q8W4J8 (parent)
chain: MERDFLGLSDKQYLSNNVKHEVNDDAVEERGLSTKAAREWGKSKVFATSSFMPSSDFQEAKAFPGAYQWGSVSAANVFRRCQFGGAFQNATPLLLGGSVPLPTHPSLVPRVASSGSSPQLTIFYGGTISVFNDISPDKAQAIMLCAGNGLKGETGDSKPVREAERMYGKQIHNTAATSSSSATHTDNFSRCRDTPVAATNAMSMIESFNAAPRNMIPSVPQARKASLARFLEKRKERLMSAMPYKKMLLDLSTGESSGMNYSSTSPT
B2: Protein TIFY 7 (Arabidopsis thaliana (Mouse-ear cress)), Q8W4J8 (parent)
chain: B1 chain
partner: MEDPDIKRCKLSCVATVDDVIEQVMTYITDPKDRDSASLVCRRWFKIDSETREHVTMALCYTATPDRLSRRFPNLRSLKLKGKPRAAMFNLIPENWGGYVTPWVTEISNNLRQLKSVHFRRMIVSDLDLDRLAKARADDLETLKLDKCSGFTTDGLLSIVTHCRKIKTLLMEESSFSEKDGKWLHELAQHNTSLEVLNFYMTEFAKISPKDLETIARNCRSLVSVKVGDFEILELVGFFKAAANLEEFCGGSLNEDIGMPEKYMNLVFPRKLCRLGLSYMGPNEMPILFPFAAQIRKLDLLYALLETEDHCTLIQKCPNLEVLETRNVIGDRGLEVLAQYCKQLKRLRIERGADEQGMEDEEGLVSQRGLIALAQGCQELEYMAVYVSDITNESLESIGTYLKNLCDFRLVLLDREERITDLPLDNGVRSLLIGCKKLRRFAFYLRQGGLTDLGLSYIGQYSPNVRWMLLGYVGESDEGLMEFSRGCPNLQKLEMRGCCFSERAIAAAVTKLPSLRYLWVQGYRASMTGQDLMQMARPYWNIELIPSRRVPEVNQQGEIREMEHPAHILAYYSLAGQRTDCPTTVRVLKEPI

Variants of: B1
Settings: with myc2_arath MYC2, Q39204
Chain of myc2_arath MYC2, Q39204 (Q39204 whole entry): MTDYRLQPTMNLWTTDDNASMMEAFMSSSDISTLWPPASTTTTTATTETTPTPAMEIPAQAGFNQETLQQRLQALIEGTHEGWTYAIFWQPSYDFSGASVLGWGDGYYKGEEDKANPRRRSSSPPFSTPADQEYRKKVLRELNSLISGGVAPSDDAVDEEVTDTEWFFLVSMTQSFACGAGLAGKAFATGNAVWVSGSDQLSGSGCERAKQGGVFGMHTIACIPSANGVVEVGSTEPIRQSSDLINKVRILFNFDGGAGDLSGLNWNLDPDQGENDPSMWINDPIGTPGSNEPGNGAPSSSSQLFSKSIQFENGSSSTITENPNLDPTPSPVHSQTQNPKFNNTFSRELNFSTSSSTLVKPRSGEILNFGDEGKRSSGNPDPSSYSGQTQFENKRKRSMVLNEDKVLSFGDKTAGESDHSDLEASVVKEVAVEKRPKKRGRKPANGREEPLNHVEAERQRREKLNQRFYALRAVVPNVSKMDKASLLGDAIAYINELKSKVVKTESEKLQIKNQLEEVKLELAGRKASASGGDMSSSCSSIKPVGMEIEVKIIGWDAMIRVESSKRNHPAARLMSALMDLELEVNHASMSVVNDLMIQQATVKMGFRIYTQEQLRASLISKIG

Effect of a mutation on the interaction, disrupting interaction strength:
MERDFLGLSDKQYLSNNVKHEVNDDAVEERGLSTKAAREWGKSKVFATSSFMPSSDFQEAKAFPGAYQWGSVSAANVFRRCQFGGAFQNATPLLLGGSVPLPTHPSLVPRVASSGSSPQLTIFYGGTISVFNDISPDKAQAIMLCAGNGLKGETGDSKPVREAERMYGKQIHNTAATSSSSATHTDNFSRCRDTPVAATNAMSMIESFNAAPRNMIPSVPQARKASLARFLEKAKERLMSAMPYKKMLLDLSTGESSGMNYSSTSPT [R234A]
MERDFLGLSDKQYLSNNVKHEVNDDAVEERGLSTKAAREWGKSKVFATSSFMPSSDFQEAKAFPGAYQWGSVSAANVFRRCQFGGAFQNATPLLLGGSVPLPTHPSLVPRVASSGSSPQLTIFYGGTISVFNDISPDKAQAIMLCAGNGLKGETGDSKPVREAERMYGKQIHNTAATSSSSATHTDNFSRCRDTPVAATNAMSMIESFNAAPRNMIPSVPQARKASLARFLEAAKERLMSAMPYKKMLLDLSTGESSGMNYSSTSPT [K233A;R234A]
MERDFLGLSDKQYLSNNVKHEVNDDAVEERGLSTKAAREWGKSKVFATSSFMPSSDFQEAKAFPGAYQWGSVSAANVFRRCQFGGAFQNATPLLLGGSVPLPTHPSLVPRVASSGSSPQLTIFYGGTISVFNDISPDKAQAIMLCAGNGLKGETGDSKPVREAERMYGKQIHNTAATSSSSATHTDNFSRCRDTPVAATNAMSMIESFNAAPRNMIPSVPQARKASLARFLEAAAERLMSAMPYKKMLLDLSTGESSGMNYSSTSPT [K233A;R234A;K235A]

Variants of: B2
Settings: with coi1_arath COI1, O04197

Effect of a mutation on the interaction, disrupting interaction strength:
MERDFLGLSDKQYLSNNVKHEVNDDAVEERGLSTKAAREWGKSKVFATSSFMPSSDFQEAKAFPGAYQWGSVSAANVFRRCQFGGAFQNATPLLLGGSVPLPTHPSLVPRVASSGSSPQLTIFYGGTISVFNDISPDKAQAIMLCAGNGLKGETGDSKPVREAERMYGKQIHNTAATSSSSATHTDNFSRCRDTPVAATNAMSMIESFNAAPRNMIPSVPQARKASLARFLEAAKERLMSAMPYKKMLLDLSTGESSGMNYSSTSPT [K233A;R234A]
MERDFLGLSDKQYLSNNVKHEVNDDAVEERGLSTKAAREWGKSKVFATSSFMPSSDFQEAKAFPGAYQWGSVSAANVFRRCQFGGAFQNATPLLLGGSVPLPTHPSLVPRVASSGSSPQLTIFYGGTISVFNDISPDKAQAIMLCAGNGLKGETGDSKPVREAERMYGKQIHNTAATSSSSATHTDNFSRCRDTPVAATNAMSMIESFNAAPRNMIPSVPQARKASLARFLEKAKERLMSAMPYKKMLLDLSTGESSGMNYSSTSPT [R234A]
MERDFLGLSDKQYLSNNVKHEVNDDAVEERGLSTKAAREWGKSKVFATSSFMPSSDFQEAKAFPGAYQWGSVSAANVFRRCQFGGAFQNATPLLLGGSVPLPTHPSLVPRVASSGSSPQLTIFYGGTISVFNDISPDKAQAIMLCAGNGLKGETGDSKPVREAERMYGKQIHNTAATSSSSATHTDNFSRCRDTPVAATNAMSMIESFNAAPRNMIPSVPQARKASLARFLEAAAERLMSAMPYKKMLLDLSTGESSGMNYSSTSPT [K233A;R234A;K235A]
MERDFLGLSDKQYLSNNVKHEVNDDAVEERGLSTKAAREWGKSKVFATSSFMPSSDFQEAKAFPGAYQWGSVSAANVFRRCQFGGAFQNATPLLLGGSVPLPTHPSLVPRVASSGSSPQLTIFYGGTISVFNDISPDKAQAIMLCAGNGLKGETGDSKPVREAERMYGKQIHNTAATSSSSATHTDNFSRCRDTPVAATNAMSMIESFNAAPRNMIPSVPQAAAASLARFLEKRKERLMSAMPYKKMLLDLSTGESSGMNYSSTSPT [R223A;K224A]
